This passage reports Kd results from paper PMC7412237 (Molecules, 2020).

Common to all, as to conditions: both partners purified
One assay deals with T1, wt-p53 (1–321 aa) (human, UniProt P04637 1-321).
T1 construct: p53, human, residues 1-321, cloned into pET23; also called p53-wt; source: E. coli BL21 (DE3) RIL, purified (Ni-NTA, gel filtration)
Kind of assay: ITC; Microcal iTC200, 25 °C; 0.012–0.030 mM p53 in the cell, 0.1–0.3 mM Mdm2 or MdmX in the syringe; 20 injections; single set of sites; in duplicate.

For assay [1], the target named is human wt-PD-1 (33–150 aa, C93S mutation) (human, UniProt Q15116 33-150, C93S, RED-NHS fluorescent label (in the MST); uniformly 15N-labelled (in the NMR)). Briefly: MST; PD-1 or mutant labelled with RED-NHS, kept at 20 nM; unlabelled PD-L1 diluted from 183 µM to 416 nM; 50 mM Tris-HCl pH 7.6, 150 mM NaCl, 10 mM MgCl2, 0.05% Tween-20; 2 h at RT.
The next assay has as its target (N66A)PD-1 (human, UniProt Q15116 33-150, C93S | N66A, RED-NHS fluorescent label (in the MST); uniformly 15N-labelled (in the NMR)). The description is as above.

Sequence of (N66A)PD-1 (Q15116 33-150 N66A/C93S): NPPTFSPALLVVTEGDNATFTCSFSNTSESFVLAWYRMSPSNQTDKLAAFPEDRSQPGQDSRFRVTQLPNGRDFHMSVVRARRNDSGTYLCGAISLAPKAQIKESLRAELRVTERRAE
T1 sequence (P04637 1-321): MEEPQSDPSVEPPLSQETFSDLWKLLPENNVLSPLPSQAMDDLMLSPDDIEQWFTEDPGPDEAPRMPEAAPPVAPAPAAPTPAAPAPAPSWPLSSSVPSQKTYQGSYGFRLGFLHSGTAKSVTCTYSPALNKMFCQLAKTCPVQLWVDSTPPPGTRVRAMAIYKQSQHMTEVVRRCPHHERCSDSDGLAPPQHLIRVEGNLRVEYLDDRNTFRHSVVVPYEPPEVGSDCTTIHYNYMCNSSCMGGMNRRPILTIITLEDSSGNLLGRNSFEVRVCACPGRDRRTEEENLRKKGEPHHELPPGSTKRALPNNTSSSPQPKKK
Sequence of human wt-PD-1 (33–150 aa, C93S mutation) (Q15116 33-150 C93S): as the sequence (Q15116 33-150 N66A/C93S) above, with A34N counted along it

B1: recombinant human Mdm2 (1–125 aa) (domain or fragment, UniProt Q00987 1-125, looked up)
chain: MCNTNMSVPTDGAVTTSQIPASEQETLVRPKPLLLKLLKSVGAQKDTYTMKEVLFYLGQYIMTKRLYDEKQQHIVYCSNDLLGDLFGVPSFSVKEHRKIYTMIYRNLVVVNQQESSDSGTSVSEN
Take B1: the affinity with wt-p53 (1–321 aa), expressed as Kd, was 0.6 ± 0.02 µM.

B2: recombinant PD-L1 (18–134 aa) (domain or fragment)
chain: AFTVTVPKDLYVVEYGSNMTIECKFPVEKQLDLAALIVYWEMEDKNIIQFVHGEEDLKVQHSSYRQRARLLKDQLSLGNAALQITDVKLQDAGVYRCMISYGGADYKRITVKVNAPY
B2: the equilibrium dissociation constant (Kd) – broadly, a measure of binding affinity in units of concentration – in assay [1] was 8 µM; with (N66A)PD-1, greater than 100 µM.
